Experimental data reported in US20070196354A1, “Method of treating diabetes by inhibiting degradation of at least one of crebl1, atf6, and hnf-4 alpha by htra” (priority 2003, published 2007).

Molecular target: T1, ATF6 (Homo sapiens, UniProt P18850)
T1 construct: expressed in transfected cells; host or cells: HEK293T
T1 sequence (P18850 1-670): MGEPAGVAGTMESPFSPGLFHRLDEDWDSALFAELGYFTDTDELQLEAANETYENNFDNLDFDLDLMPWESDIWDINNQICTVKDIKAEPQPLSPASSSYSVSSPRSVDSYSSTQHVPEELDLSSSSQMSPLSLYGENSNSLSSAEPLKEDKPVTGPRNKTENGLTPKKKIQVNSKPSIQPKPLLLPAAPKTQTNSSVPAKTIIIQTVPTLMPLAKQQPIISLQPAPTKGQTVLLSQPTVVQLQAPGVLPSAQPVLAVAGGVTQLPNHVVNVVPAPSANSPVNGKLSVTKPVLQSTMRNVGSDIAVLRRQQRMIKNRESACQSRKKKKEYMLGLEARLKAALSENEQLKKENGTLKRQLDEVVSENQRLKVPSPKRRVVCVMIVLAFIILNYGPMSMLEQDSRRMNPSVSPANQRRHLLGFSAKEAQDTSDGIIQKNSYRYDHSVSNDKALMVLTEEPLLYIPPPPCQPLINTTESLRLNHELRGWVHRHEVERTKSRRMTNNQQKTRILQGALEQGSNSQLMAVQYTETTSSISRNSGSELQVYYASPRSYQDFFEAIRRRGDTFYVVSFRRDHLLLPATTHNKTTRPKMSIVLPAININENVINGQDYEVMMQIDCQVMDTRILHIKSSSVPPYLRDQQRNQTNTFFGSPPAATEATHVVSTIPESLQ
Assay: In vitro protease assay, ATF6 captured on resin
Format: biochemical
Details: 50 μg/ml, 37° C., four hours (4 h) or overnight (O/N), anti-c-Myc detection
Method: CREBL1 and ATF6 which were captured on the resin were used in the experiments in order to eliminate the influence of proteinaceous impurities contained in the soluble fractions prepared from the cells obtained by transfecting an expression plasmid of CREBL1 or ATF6. Three hundreds μl of each soluble fraction of CREBL1 and ATF6 was dispensed to six tubes (Nos. 1 to 6), followed by adding 20 μl of protein G sepharose 4 FF (Amersham) of 50% slurry that had been subjected to blocking with BSA, to each of tubes, subjected to overturned mixing at 4° C. for 1 hour, and then subjected to centrifugation (10,000 rpm, 10 sec, 4° C.) to collect the supernatant, and thus the pre-treatment (pre-clean) was performed. The resultant supernatant was mixed with 1.7 μl (2 μg) of anti-Myc antibody (Invitrogen), subjected to overturned mixing at 4° C. for 3 hours, followed by adding 20 μl of protein G sepharose 4 FF that had been subjected to blocking with BSA, and then subjected to overturned mixing at 4° C. overnight. Thus, CREBL1 and ATF6 were respectively captured on protein G sepharose 4 FF. […]

B1: mature HtrA2: SEQ ID NO: 4; mature protein generated from HtrA2 precursor by cleavage of N-terminal 133 residues, has protease activity (protein, listed as Homo sapiens)
chain: MAVPSPPPASPRSQYNFIADVVEKTAPAVVYIEILDRHPFLGREVPISNGSGFVVAADGLIVTNAHVVADRRRVRVRLLSGDTYEAVVTAVDPVADIATLRIQTKEPLPTLPLGRSADVRQGEFVVAMGSPFALQNTITSGIVSSAQRPARDLGLPQTNVEYIQTDAAIDFGNSGGPLVNLDGEVIGVNTMKVTAGISFAIPSDRLREFLHRGEKKNSSSGISGSQRRYIGVMMLTLSPSILAELQLREPSFPDVQHGVLIHKVILGSPAHRAGLRPGDVILAIGEQMVQNAEDVYEAVRTQSQLAVQIRRGRETLTLYVTPEVTE
modifications: mature HtrA2
B1 was tested, and the “degradation of ATF6 (band by western blotting)” value was “the band of ATF6 was reduced significantly”.
